According to patent publication US20250090677A1 (MULTITUDE THERAPEUTICS, published 2025):
Where a chain is given by its changes, count along the chain named.

Experiments:
Human CDH6-ECD-His = target: T1, Human CDH6-ECD-His (human, UniProt P55285 54-615); experiment: BLI (Octet), antibody on AHC sensor, antigen 3.13-100 nM, 1:1 model
T1 construct: extracellular domain; Bought protein; also called human CDH6-ECD-His recombinant protein; Human CDH6-EC6D-His; not shown: His tag
T1 sequence (looked up): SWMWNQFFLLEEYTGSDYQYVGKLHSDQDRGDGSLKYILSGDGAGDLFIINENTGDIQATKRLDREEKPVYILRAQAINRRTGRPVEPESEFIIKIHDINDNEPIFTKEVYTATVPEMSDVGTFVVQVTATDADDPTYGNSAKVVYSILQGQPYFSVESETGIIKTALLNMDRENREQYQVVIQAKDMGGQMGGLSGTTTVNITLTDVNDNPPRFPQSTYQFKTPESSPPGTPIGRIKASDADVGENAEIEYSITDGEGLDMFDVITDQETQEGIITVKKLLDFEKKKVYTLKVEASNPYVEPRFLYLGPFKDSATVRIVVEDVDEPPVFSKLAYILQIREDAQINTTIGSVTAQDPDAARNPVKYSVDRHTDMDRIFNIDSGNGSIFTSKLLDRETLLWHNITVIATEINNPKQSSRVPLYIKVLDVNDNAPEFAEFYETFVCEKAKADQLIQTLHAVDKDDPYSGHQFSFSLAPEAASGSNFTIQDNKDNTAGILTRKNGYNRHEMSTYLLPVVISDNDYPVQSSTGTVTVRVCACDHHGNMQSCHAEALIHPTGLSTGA
Experimental: (§1) Binding affinities of CL069707-H1L1 and Ch069707 were measured using the Octet® system based on Bio-Layer Interferometry (BLI) technique. Antibodies were loaded to AHC (Anti-hIgG Fc Capture) at 100 nM concentration. […] From the six different binding curves obtained from each antigen concentration, binding constants (KD) were calculated based on the 1:1 binding model. CL069707-H1L1 and Ch069707 binds to human CDH6-ECD-His antigen with similar affinity. CL069707-H1L1 binds to human CDH6-ECD-His and cyno monkey CDH6-ECD-His antigens with similar affinity.

cyno monkey CDH6-ECD-His [1] = target: T2, cyno monkey CDH6-ECD-His (cyno monkey, UniProt A0A2K5TW62 54-615); experiment: as above
T2 construct: extracellular domain; Bought protein; also called Cyno CDH6-ECD-His; not shown: His tag
T2 sequence: T1 sequence (looked up) with Y300H, H457R
Experimental: as §1

cyno monkey CDH6-ECD-His [2] = target: T2, cyno monkey CDH6-ECD-His; experiment: ELISA, antigen coated at 1 ug/mL, 3-fold antibody dilutions, HRP anti-human antibody, OD450
Experimental: (§2) CDH9 and […] are the most closely related family members to CDH6. Binding of CL069707-H1L1 on human CDH6, CDH9 and CDH10 ECD domains were analyzed by ELISA Binding Assay. Human […], CDH9-ECD-His and CDH10-ECD-His antigens were obtained from Acro Biosystems, Inc. 100 μL of 1 μg/mL of the antigens diluted in PBS were added to 96 well plates and incubated in 4° C. overnight. The plates were washed 3 times with 300 μL of washing buffer. Then 100 μL/well of 1% BSA blocking reagent were added to the plates, and incubated at 37° C. for 1 h then the blocking reagent were discarded. A 3-fold serial dilution of CL069707-H1L1 was added to the plates and then incubated at 37° C. for 1 h. Then the plates were washed 3 times with 300 μL of washing buffer. 100 μL/well of HRP-conjugated anti-Human antibody diluted in 1% BSA were added to the plates and then incubated at 37° C. for 1 h. The plates were washed 3 times with 300 μL of washing buffer. 100 μL/well of TMB substrate were added to the plates and incubated for about 10 min in room temperature. Then the reaction was stopped with 100 μL/well of stopping solution. OD450 was read with a plate reader and the data were processed.
(§3) Binding of CL069707-H1L1 on human, cyno monkey, mouse or rat CDH6 antigen were analyzed by ELISA. Human, cyno monkey, mouse and rat CDH6-ECD-His antigens were obtained from Acro Biosystems, Inc. ELISA were done with the same methods as in example 3.1. CL069707-H1L1 binds to human, cyno monkey, mouse and rat CDH6-ECD-His antigens with similar EC50.

mouse CDH6-ECD-His = target: T3, mouse CDH6-ECD-His (mouse, UniProt P97326 54-615); experiment: as above
T3 construct: extracellular domain; Bought protein; not shown: His tag
T3 sequence (looked up): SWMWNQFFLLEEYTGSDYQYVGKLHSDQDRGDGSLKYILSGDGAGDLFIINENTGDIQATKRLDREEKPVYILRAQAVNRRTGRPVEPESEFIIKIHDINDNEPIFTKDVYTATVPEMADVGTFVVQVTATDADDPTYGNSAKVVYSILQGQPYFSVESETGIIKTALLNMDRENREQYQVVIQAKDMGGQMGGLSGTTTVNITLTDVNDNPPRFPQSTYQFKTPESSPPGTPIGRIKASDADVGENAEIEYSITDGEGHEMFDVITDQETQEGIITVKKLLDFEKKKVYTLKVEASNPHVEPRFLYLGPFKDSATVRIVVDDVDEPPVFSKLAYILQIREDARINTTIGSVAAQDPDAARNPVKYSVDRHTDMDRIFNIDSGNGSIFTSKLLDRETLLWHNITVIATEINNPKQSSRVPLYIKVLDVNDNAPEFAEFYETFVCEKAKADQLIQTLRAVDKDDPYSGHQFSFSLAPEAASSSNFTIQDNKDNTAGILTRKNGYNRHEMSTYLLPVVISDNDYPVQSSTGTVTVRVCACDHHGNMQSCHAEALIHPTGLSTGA
Experimental: as §2, §3

- Kd (Human CDH6-ECD-His): 3.08 nM
- Kd (cyno monkey CDH6-ECD-His [1]): 2.69 nM
- EC50 (read off the curve) (cyno monkey CDH6-ECD-His [2]): ~0.1 nM
- EC50 (read off the curve) (mouse CDH6-ECD-His): ~0.1 nM
B1: CL069707-H1L1 (antibody, human IgG1, kappa, V domains shown)
VH: EVQLVESGGGLVQPGGSLRLSCAASGFTFTTYAMNWVRQAPGKGLEWVARIRIKNNNYATYYADSVTDRFTISRDDSKNSLYLQMNSLKTEDTAVYYCVRPDYGNYGLAYWGQGTLVTVSS
VL: DIQLTQSPSSLSASVGDRVTITCSASSSISSHYLHWYQQKPGKSPKLLIYRSFYLASGVPSRFSGSGSGTDFTLTISSLQPEDFATYYCQQDIVPLTFGQGTKLEIKR
notes: Humanized IgG1/kappa, produced in 293 cells; also called humanized CL069707-H1L1
